By EC50 (read off the curve) is commonly meant the concentration at which the effect is half-maximal.

Test [1] addresses T1, Fc-His-tagged human B7H6 ECD (human).
T1 construct: also called huB7H6-ECD-Fc-His; recombinant human B7H6 ECD
Briefly: ELISA, plate coated with Fc-His-tagged human B7H6 ECD, anti-human IgG F(ab')2-peroxidase, TMB. On the procedure: To assess binding of B7H6/CD3 binding proteins to recombinant human Fc-His-tagged B7H6 ECD and human Fc-His-tagged Ala-mutated B7H6 extracellular proteins as described in Example 3, MediSorp™ plates (Nunc, 467320) were coated with […] recombinant proteins overnight at 4° C. The next day, plates were blocked with 0.5% bovine serum albumin (BSA) in phosphate buffered saline (PBS) for 1 hour at room temperature (RT). Subsequently plates were washed with […] containing 0.05% TWEEN®20 viscous liquid and B7H6/CD3 binding proteins were incubated at concentrations ranging from 0.00001 to 10 μg/ml. After an additional washing step, bound B7H6/CD3 binding proteins were detected by a peroxidase conjugated goat anti-human IgG F(ab′)₂-specific secondary antibody (Jackson Immunoresearch) and visualized by TMB substrate solution (Bender Med Systems).

The target in test [2] is T2, human B7H6 on HCT-15 cells (human, UniProt Q68D85 25-454).
T2 sequence (looked up): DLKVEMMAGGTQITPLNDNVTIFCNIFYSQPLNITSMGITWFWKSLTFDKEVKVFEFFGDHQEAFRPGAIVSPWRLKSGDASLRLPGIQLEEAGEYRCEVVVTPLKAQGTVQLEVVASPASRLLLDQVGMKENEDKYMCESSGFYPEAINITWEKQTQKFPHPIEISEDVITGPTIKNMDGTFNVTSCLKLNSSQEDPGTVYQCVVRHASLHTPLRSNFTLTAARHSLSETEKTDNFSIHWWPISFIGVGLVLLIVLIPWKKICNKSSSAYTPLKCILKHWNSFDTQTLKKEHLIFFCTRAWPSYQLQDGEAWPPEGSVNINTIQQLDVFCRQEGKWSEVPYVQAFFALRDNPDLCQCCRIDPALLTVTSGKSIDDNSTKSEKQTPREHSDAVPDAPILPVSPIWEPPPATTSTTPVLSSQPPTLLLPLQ
Briefly: cell-based or functional assay.

B1: B7H6#9/CD3#1 (bispecific antibody, human IgG1, kappa, lambda, L234A L235A)
chain 1: DIVLTQSPVSLAVSLGQRATISCRASESVDNFGVSFMNWFQQKPGQPPKLLIYAASNQGSGVPARFSGSGSGTDFSLNIHPLEEDDTAMYFCQQSKEVPWTFGGGTRLEIKRTVAAPSVFIFPPSDEQLKSGTASVVCLLNNFYPREAKVQWKVDNALQSGNSQESVTEQDSKDSTYSLSSTLTLSKADYEKHKVYACEVTHQGLSSPVTKSFNRGECGGGGSEGKSSGSGSESKSTEGKSSGSGSESKSTGGGGSQVQLQQPGAEMVRPGSSVKLSCKASDYTFTHYWIHWVKQRPLEGLEWIGIIGPSDNEIHYNQDFKDKATLTVDKSSNTAYLHLNSLTSEDSAVYYCARQIISMVVGTEYFDVWGTGTTVTVSSASTKGPSVFPLAPSSKSTSGGTAALGCLVKDYFPEPVTVSWNSGALTSGVHTFPAVLQSSGLYSLSSVVTVPSSSLGTQTYICNVNHKPSNTKVDKRVEPKSCDKTHTCPPCPAPEAAGGPSVFLFPPKPKDTLMISRTPEVTCVVVDVSHEDPEVKFNWYVDGVEVHNAKTKPREEQYNSTYRVVSVLTVLHQDWLNGKEYKCKVSNKALPAPIEKTISKAKGQPREPQVYTLPPSREEMTKNQVSLWCLVKGFYPSDIAVEWESNGQPENNYKTTPPVLDSDGSFFLYSKLTVDKSRWQQGNVFSCSVMHEALHNHYTQKSLSLSPG
chain 2: EAVVTQEPSLTVSPGGTVTLTCRSSTGAVTTSNYANWVQEKPGQLPRGLIGGTNKRAPWVPARFSGSLLGGKAALTLSGAQPEDEAEYFCALWYSNLWVFGGGTKLTVLGQPKAAPSVTLFPPSSEELQANKATLVCLISDFYPGAVKVAWKADGSPVNTGVETTTPSKQSNNKYAASSYLSLTPEQWKSHRSYSCQVTHEGSTVEKTVAPAECSGGGGSEGKSSGSGSESKSTEGKSSGSGSESKSTGGGGSEVQLVESGGGLVQPGGSLKLSCAASGFTFNTYAMNWVRQAPGKGLEWVARIRSKYNNYATYYADSVKDRFTISRDDSKNTAYLQMNNLKTEDTAVYYCVRHGNFGNSYVSWFAYWGQGTLVTVSAASTKGPSVFPLAPSSKSTSGGTAALGCLVKDYFPEPVTVSWNSGALTSGVHTFPAVLQSSGLYSLSSVVTVPSSSLGTQTYICNVNHKPSNTKVDKRVEPKSCDKTHTCPPCPAPEAAGGPSVFLFPPKPKDTLMISRTPEVTCVVVDVSHEDPEVKFNWYVDGVEVHNAKTKPREEQYNSTYRVVSVLTVLHQDWLNGKEYKCKVSNKALPAPIEKTISKAKGQPREPQVYTLPPSREEMTKNQVSLSCAVKGFYPSDIAVEWESNGQPENNYKTTPPVLDSDGSFFLVSKLTVDKSRWQQGNVFSCSVMHEALHNRFTQKSLSLSPG
notes: scFab-Fc heterodimer, one B7H6 chain and one CD3 chain
With B1, in test [1], the concentration for a half-maximal effect (EC50 (read off the curve)) was about 0.05 µg/mL. For the same molecule, the “EC50 [nM], 72 hour cytotoxicity assay, non-stimulated T-cells (Donor #1) as effector cells, HCT-15 cells as target cells” value in test [2] is 0.44 nM.

The values are drawn from patent publication US20210107983A1 (Boehringer Ingelheim, published 2021).
